Test [1] addresses T1, human syndecan-1 (SDC1) (human, UniProt P18827 23-310, heparan sulfate and chondroitin sulfate chains; the lacritin-bindable form is partly or wholly deglycanated (heparanase or heparitinase)).
T1 construct: Seen as 190 kDa multimer and 80 kDa band on blots; also called cell surface SDC1; native SDC1
T1 sequence: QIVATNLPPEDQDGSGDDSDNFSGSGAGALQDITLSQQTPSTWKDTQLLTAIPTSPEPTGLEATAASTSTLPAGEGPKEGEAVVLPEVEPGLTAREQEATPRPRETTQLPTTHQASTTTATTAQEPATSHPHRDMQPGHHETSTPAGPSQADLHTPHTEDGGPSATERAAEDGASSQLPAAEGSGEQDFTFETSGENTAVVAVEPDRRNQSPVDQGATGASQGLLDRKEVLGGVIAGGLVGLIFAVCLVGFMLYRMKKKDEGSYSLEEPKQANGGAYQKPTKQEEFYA
Nature of the test: N-15-intein beads, HEK293T/SDC1 lysate, B-B4 blot. The method, then: (§1) All lacritin truncations were expressed as intein fusion proteins for affinity precipitation. Asterisk indicates mitogenic domain (Wang et al, submitted), and boxes represent PSIPRED-predicted alpha helices. (B) Lacritin-, C-5-, C-10-, C-15-, C-25- and C-59-intein beads were incubated with lysates from HEK293T cells stably expressing human SDC1. Beads were washed and treated with heparitinase I/chondroitinase ABC. The digests were centrifuged, and pellets (P) and supernatants (S) blotted with mAb B-B4 for SDC1 core protein, all as in FIG. 2. (C) Incubation of lacritin-, N-15- and N-24-intein beads with the same human SDC1 lysates was followed with identical washing, heparitinase I/chondroitinase ABC digestion, centrifugation and B-B4 mAb blotting. Lys, lysate. Figure 3B: Figure 3C: Figure 4A: FIG. 4. Lacritin-SDC1 binding is inhibited by soluble hS1ED, lacritin and N-24, but not by C-25, C-59, HS, CS, SDC2 or SDC4. (A) Top row, lacritin-intein beads were incubated with human SDC1 lysates from stably expressing HEK293T cells in the presence of increasing amounts of soluble HS (70-700 µg), HS (700 µg) plus CS (700 µg), lacritin (14-700 µg) or no inhibitor (−). Quantity of soluble inhibitor was calibrated relative to the approximately 7-8 µg of human SDC1 elutable from lacritin-intein beads with 1 M NaCl. […] (B) Quantification of inhibition binding.

The target in test [2] is T1, human syndecan-1 (SDC1). Nature of the test: C-5-intein beads, HEK293T/SDC1 lysate, B-B4 blot. The method, then:
as §1

The target in test [3] is T1, human syndecan-1 (SDC1). Nature of the test: soluble competitor in lacritin-intein affinity precipitation of SDC1. The method, then: as §1
Test [4] has as its target T1, human syndecan-1 (SDC1). Nature of the test: C-10-intein beads, HEK293T/SDC1 lysate, B-B4 blot. The method, then: as §1
The target of test [5] is T1, human syndecan-1 (SDC1). Description: soluble competitor of lacritin-intein beads for SDC1 in HEK293T lysate, B-B4 blot. The method, then:
as §1

The target of test [6] is T1, human syndecan-1 (SDC1). Nature of the test: N-24-intein beads, HEK293T/SDC1 lysate, B-B4 blot. The method, then: as §1
In test [7] the target is T2, alpha-2C-adrenergic receptor (ADRA2C) (human, UniProt P18825 1-462, limits assumed).
T2 sequence (looked up): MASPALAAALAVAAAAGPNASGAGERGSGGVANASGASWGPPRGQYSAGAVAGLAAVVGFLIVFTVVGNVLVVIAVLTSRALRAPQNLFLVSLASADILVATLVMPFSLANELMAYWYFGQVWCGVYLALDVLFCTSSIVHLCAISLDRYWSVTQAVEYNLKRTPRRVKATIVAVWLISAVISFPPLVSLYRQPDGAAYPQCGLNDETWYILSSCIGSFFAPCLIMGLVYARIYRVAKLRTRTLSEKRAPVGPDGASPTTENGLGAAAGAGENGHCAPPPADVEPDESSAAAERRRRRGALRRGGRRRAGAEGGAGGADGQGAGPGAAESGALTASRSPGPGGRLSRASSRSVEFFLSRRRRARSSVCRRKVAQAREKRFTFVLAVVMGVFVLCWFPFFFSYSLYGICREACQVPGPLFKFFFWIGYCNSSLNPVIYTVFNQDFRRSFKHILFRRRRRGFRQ
Nature of the test: low salt competition against 125I-iodoclonidine on immobilized human ADRA2C, repeated assays. The method, then:
If we are correct that syndecan-1 increases lacritin's affinity for a G-protein coupled receptor (GPCR), possibly some low affinity GPCR binding can be detected without syndecan-1 in low salt. To ask this question, a low salt screen of 31 immobilized human GPCRs in which 10 nM lacritin, N-24 or C-25 were asked to compete with 125I-receptor ligand for receptor binding. […] Although preliminary, this compares to 1698 nM for native agonist epinephrine. Possibly N-24's lack of seven negatively charged residues may improve binding in the absence of syndecan-1.

In general, Ki refers to a dissociation constant, usually derived from enzyme kinetics or from competition with a known ligand.

B1: N-15 lacritin-intein (ligand, not shown: small tags and cut ends)
chain: AGTSKPNEEISGPAEPASPPETTTTAQETSAAAVQGTAKVTSSRQELNPLKSIVEKSILLTEQALAKAGKGMHGGVPGGKQFIENGSEFAQKLLKKFSLLKPWA
Consider B1, for which the binding result in test [1] was “binds”.

B2: C-5 lacritin-intein (ligand, not shown: small tags and cut ends)
chain: EDASSDSTGADPAQEAGTSKPNEEISGPAEPASPPETTTTAQETSAAAVQGTAKVTSSRQELNPLKSIVEKSILLTEQALAKAGKGMHGGVPGGKQFIENGSEFAQKLLKKFSL
notes: All lacritin truncations were expressed as intein fusion proteins
Regarding B2, the binding result in test [2] is recorded as “binds”.

B3: soluble C-59 lacritin (ligand)
chain: EDASSDSTGADPAQEAGTSKPNEEISGPAEPASPPETTTTAQETSAAAVQGTAKVTSSRQ
notes: Range counted by me
In the case of B3, the binding result in test [3] was “no binding (tested: 14 µg)”.

B4: C-10 lacritin-intein (ligand, not shown: small tags and cut ends)
chain: EDASSDSTGADPAQEAGTSKPNEEISGPAEPASPPETTTTAQETSAAAVQGTAKVTSSRQELNPLKSIVEKSILLTEQALAKAGKGMHGGVPGGKQFIENGSEFAQKLL
B4: the binding result in test [4] is “binds”.

B5: soluble lacritin (recombinant) (ligand)
chain: EDASSDSTGADPAQEAGTSKPNEEISGPAEPASPPETTTTAQETSAAAVQGTAKVTSSRQELNPLKSIVEKSILLTEQALAKAGKGMHGGVPGGKQFIENGSEFAQKLLKKFSLLKPWA
notes: also called intact lacritin
Consider B5, for which the binding result in test [5] is “binds”.

B6: N-24 lacritin-intein (ligand, not shown: small tags and cut ends)
chain: ISGPAEPASPPETTTTAQETSAAAVQGTAKVTSSRQELNPLKSIVEKSILLTEQALAKAGKGMHGGVPGGKQFIENGSEFAQKLLKKFSLLKPWA
Turning to B6, the binding result in test [6] is “binds”.

B7: soluble N-24 lacritin (ligand)
chain: ISGPAEPASPPETTTTAQETSAAAVQGTAKVTSSRQELNPLKSIVEKSILLTEQALAKAGKGMHGGVPGGKQFIENGSEFAQKLLKKFSLLKPWA
notes: Range counted by me
Regarding B7, in test [7], the Ki stood at 1290 nM. For the same molecule, the binding result in test [5] is on record as “binds”.

B8: soluble C-25 lacritin (ligand)
chain: EDASSDSTGADPAQEAGTSKPNEEISGPAEPASPPETTTTAQETSAAAVQGTAKVTSSRQELNPLKSIVEKSILLTEQALAKAGKGMHGGVPGG
notes: Range counted by me
On to B8, for which the binding result in test [3] is “no binding (tested: 14 µg)”.
